Data from article PMC5974136.

Molecular target: Tyr24 (position 24, …)
Experiment: NMR
Settings: 10 C; no added salt (NaCl, KCl absent); 10 mM phosphate only; 10 mM phosphate buffer (initial pH 7), 0.1 mM DSS; soluble, predominantly disordered repetitive domain; about 1.5-2.2 mM protein

B1: MaSp1 repetitive domain 15-mer (15 contiguous copies of the consensus repeat of major ampullate spidroin 1) (Nephila clavipes (Trichonephila clavipes); … (protein)
chain: GRGGLGGQGAGAAAAAGGAGQGGYGGLGSQGTSGRGGLGGQGAGAAAAAGGAGQGGYGGLGSQGTSGRGGLGGQGAGAAAAAGGAGQGGYGGLGSQGTSGRGGLGGQGAGAAAAAGGAGQGGYGGLGSQGTSGRGGLGGQGAGAAAAAGGAGQGGYGGLGSQGTSGRGGLGGQGAGAAAAAGGAGQGGYGGLGSQGTSGRGGLGGQGAGAAAAAGGAGQGGYGGLGSQGTSGRGGLGGQGAGAAAAAGGAGQGGYGGLGSQGTSGRGGLGGQGAGAAAAAGGAGQGGYGGLGSQGTSGRGGLGGQGAGAAAAAGGAGQGGYGGLGSQGTSGRGGLGGQGAGAAAAAGGAGQGGYGGLGSQGTSGRGGLGGQGAGAAAAAGGAGQGGYGGLGSQGTSGRGGLGGQGAGAAAAAGGAGQGGYGGLGSQGTSGRGGLGGQGAGAAAAAGGAGQGGYGGLGSQGTSGRGGLGGQGAGAAAAAGGAGQGGYGGLGSQGTS
- pKa: 10.25 ± 0.02
